According to patent US20160376333A1 (University of Washington, published 2016):

Assays:
[1] = target: T1, Epstein-Barr virus BHRF1 a.a. 1-161 with C-terminal avi-6his tag (Epstein-Barr virus); assay: yeast display library, FACS sort at 400 nM BHRF1, deep sequencing
T1 construct: also called EBV BHRF1; BHRF1-biotin
T1 chain: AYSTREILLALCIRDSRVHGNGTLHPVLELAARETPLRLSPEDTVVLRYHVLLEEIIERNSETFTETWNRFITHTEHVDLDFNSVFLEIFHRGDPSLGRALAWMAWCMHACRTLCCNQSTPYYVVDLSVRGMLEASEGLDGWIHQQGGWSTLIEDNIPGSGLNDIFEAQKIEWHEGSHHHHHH

[2] = target: T1, Epstein-Barr virus BHRF1 a.a. 1-161 …; assay: yeast display library, FACS sort at 100 nM BHRF1, deep sequencing
[3] = target: T1, Epstein-Barr virus BHRF1 a.a. 1-161 …; assay: yeast surface display
[4] = target: T2, human Bcl-w a.a. 1-182 with C-terminal avi-6his tag (human, UniProt Q92843 1-182); assay: ratio of the KD of the next tightest BCL2 protein to the KD of the target, BLI
T2 construct: range 1-182; also called BCL2L2
T2 sequence: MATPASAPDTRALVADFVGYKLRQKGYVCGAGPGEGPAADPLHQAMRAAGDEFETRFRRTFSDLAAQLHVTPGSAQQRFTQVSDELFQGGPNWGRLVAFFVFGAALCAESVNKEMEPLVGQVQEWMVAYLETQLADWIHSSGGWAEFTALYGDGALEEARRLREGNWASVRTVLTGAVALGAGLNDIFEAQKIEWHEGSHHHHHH

[5] = target: T3, human Bcl-2 a.a. 1-207 with C-terminal avi-6his tag (human, UniProt P10415 2-207); assay: BLI, biotinylated target on streptavidin sensor, range of analyte concentrations
[6] = target: T4, human Bcl-XL a.a. 1-205 with C-terminal avi-6his tag (human, UniProt Q07817 2-206); assay: as above
T4 construct: also called BCL2L1

[7] = target: T2, human Bcl-w a.a. 1-182 with C-terminal …; assay: as above
[8] = target: T4, human Bcl-XL a.a. 1-205 with C-terminal …; assay: ratio of the KD of the next tightest BCL2 protein to the KD of the target, BLI
[9] = target: T5, human Bcl-B a.a. 11-175 with C-terminal avi-6his tag (human); assay: BLI, biotinylated target on streptavidin sensor, range of analyte concentrations
T5 construct: also called BCL2L10
T5 chain: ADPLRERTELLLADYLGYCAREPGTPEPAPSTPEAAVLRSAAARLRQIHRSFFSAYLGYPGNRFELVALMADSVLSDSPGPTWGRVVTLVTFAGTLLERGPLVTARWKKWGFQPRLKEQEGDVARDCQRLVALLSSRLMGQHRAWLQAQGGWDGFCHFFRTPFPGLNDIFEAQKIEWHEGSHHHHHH

[10] = target: T6, human Mcl-1 a.a. 172-327 with C-terminal avi-6his tag (human); assay: as above
T6 chain: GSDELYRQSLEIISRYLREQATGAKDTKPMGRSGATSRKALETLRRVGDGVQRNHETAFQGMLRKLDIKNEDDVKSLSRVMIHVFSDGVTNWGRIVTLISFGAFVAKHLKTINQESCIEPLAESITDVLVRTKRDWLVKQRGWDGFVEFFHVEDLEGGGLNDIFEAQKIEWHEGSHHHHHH

[11] = target: T6, human Mcl-1 a.a. 172-327 with …; assay: yeast surface display titration (apparent KD)
[12] = target: T7, human Bfl-1 a.a. 1-153 (C4S) with C-terminal avi-6his tag (human); assay: yeast surface display titration (apparent KD)
T7 construct: also called A1/Bfl-1
T7 chain: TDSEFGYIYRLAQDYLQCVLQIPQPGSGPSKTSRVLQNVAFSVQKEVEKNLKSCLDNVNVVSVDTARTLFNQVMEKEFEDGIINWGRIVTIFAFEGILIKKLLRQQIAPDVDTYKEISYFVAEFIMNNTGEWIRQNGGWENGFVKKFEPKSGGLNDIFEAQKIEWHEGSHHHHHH

[13] = target: T3, human Bcl-2 a.a. 1-207 with C-terminal …; assay: yeast surface display titration (apparent KD)
[14] = target: T4, human Bcl-XL a.a. 1-205 with C-terminal …; assay: yeast surface display titration (apparent KD)
[15] = target: T2, human Bcl-w a.a. 1-182 with C-terminal …; assay: yeast surface display titration (apparent KD)
[16] = target: T2, human Bcl-w a.a. 1-182 with C-terminal …; assay: initial BLI screening (column 'Binds target?')
[17] = target: T3, human Bcl-2 a.a. 1-207 with C-terminal …; assay: ratio of the KD of the next tightest BCL2 protein to the KD of the target, BLI
[18] = target: T7, human Bfl-1 a.a. 1-153 (C4S) with …; assay: as above
[19] = target: T7, human Bfl-1 a.a. 1-153 (C4S) with …; assay: BLI, biotinylated target on streptavidin sensor, range of analyte concentrations
[20] = target: T6, human Mcl-1 a.a. 172-327 with …; assay: BLI at a single analyte concentration (50 nM, 600 s association, then buffer); biotinylated BCL2 protein on a streptavidin sensor
[21] = target: T3, human Bcl-2 a.a. 1-207 with C-terminal …; assay: as above
[22] = target: T4, human Bcl-XL a.a. 1-205 with C-terminal …; assay: as above
[23] = target: T2, human Bcl-w a.a. 1-182 with C-terminal …; assay: as above

B1: Index 67 (designed binder)
chain: GNRSEEVKELMRELAERVLLKFRWRADEMNKEKDKKYDKEELKRELTEKWIAFALDAIGDLFNAAELAKKLADLFKKGTGFLEERLERRKEEIEKLEEKGSRKVSYEGRREAEKIESG
[1]
  Log2 enrichment ratio: -3.44 log2
[2]
  Log2 enrichment ratio: -3.48 log2
[3]
  binding result: no binding

B2: WINDI (designed binder)
chain: DPKKVFDELKDRAENNVRRLKQKLEELYKEARKKDLTQEEREKLKTKYKTAMQLAALAAEGDIMNALLKARKLHKNGQVNEQQLEELARRLMELAKEAFQKAKDYANEFKYKLEY
notes: also called W-ECM01; αBCLW
[4]
  Specificity: 1590 fold
[5]
  Kd: 5.7 µM
[6]
  Kd: 1.61 µM
[7]
  Kd: 0.00101 µM

B3: XINDI (designed binder)
chain: ADPKKVLDKAKDRAENVVRKLKKELEELYKEARKLDLTQEMRDRIRRTAIAARFQAHGDIFHAIKHAKEEARKLKKAGLVNSQQLDELKRRLRELDEEAEQRAEKLGKEFRLKLEY
notes: also called X-ECM04; αBCLXL
[8]
  Specificity: 660 fold
[5]
  Kd: 3.7 µM
[6]
  Kd: 0.00559 µM
[7]
  Kd: 40 µM

B4: X-CDP07 (designed binder)
chain: ADPKKVLDKAKDRAENVVRKLKKELEELYKEARKLDLTQEMRDRIRLAAIAARIAAFGDIFHAIMEALEEARKLKKAGLVNSQQLDELKRRLEELDEEAAQRAEKLGKEFELKLEY
[8]
  Specificity: 6.46 fold
[9]
  Kd: 0.107 µM
[10]
  Kd: 0.174 µM
[5]
  Kd: 0.00381 µM
[6]
  apparent Kd (pooled screen): 0.00059 µM
[7]
  Kd: 0.0149 µM

B5: BbpD04.3 (designed binder)
chain: ADWKKVLDKAKDIAENRVRELKQKLEEFYKEAMKLDLTQEMRRKLMLRWIAAMLMAIGDIFNAIRQAKQEADKLKKAGLVNSQQLDELKRRLEELKEEASRKARDYGREFQLKLEY
[11]
  Kd: 0.019 µM
[12]
  Kd: 0.032 µM

B6: BbpD04.1 (designed binder)
chain: ADWKKVLDKAKDIAENRVREIKQKLEEFYKEAMKLDLTQEMRRKLMLRWIAAMLMAIGDIFNAIRQAKQEADKLKKAGQVNSQLLDELKRRLEELKEEASRKCHDYGREFQLKLEY
[11]
  Kd: 0.03 µM
[13]
  Kd: 0.11 µM
[14]
  Kd: 0.025 µM
[15]
  Kd: 0.014 µM

B7: W-CDP01 (designed binder)
chain: DPKKVFDKAKDKAENQVRYLKQRLEELYKEARKKDLTQEQRRKLKEKYLAAKLAAILAAIGDAFNALAEARELHKQGKVNKQQLDELAKRLDRLAEEAIQKAEDYAREFAYKLEY
[16]
  binding result: binds

B8: 2-INDI (designed binder)
chain: ADPKKVLDKAKDEAENRVRELKQRLEELYKEARKLDLTQEMRQELVDKARAASLQANGDIFYAILRALAEAEKLKKAGLVNSQQLDELKRRLEELAEEARRKAEKLRDEFRLKLEY
notes: also called αBCL2
[17]
  Specificity: 2210 fold
[5]
  Kd: 0.000839 µM
[6]
  Kd: 3.5 µM
[7]
  Kd: 1.85 µM

B9: 2-CDP06 (designed binder)
chain: ADPKKVLDKAKDEAENRVRELKQKLEELYKEARKLDLTQEMRQELVDKARAASLQASGDIFYAILRALAEAEKLKKAGLVNSQQLDELKRRLEELAEEARRKAEKLGDEFRLKLEY
[17]
  Specificity: 190 fold
[5]
  apparent Kd (pooled screen): 0.0089 µM
[6]
  Kd: 12 µM
[7]
  Kd: 1.67 µM

B10: W-CDP02 (designed binder)
chain: DPKKVLDKARDQALKRLEEMRKKLEESYKEARKKDLTQEERRKLEEKYAEAMKRAAEDIYNMIQQALKEAEKEKKAGQVNSQQLDKLREDLNNKLIAAALAAIGDAFNMAANLRT
[16]
  binding result: binds

B11: F-CDP01 (designed binder)
chain: ADPKKVLDKAKDQAENRVRELKQKLEELYKEARKLDLTQEMRKKLQYAAIGAMLAAIGDILNAIMQAKQEADKLKKAGLVNSQQLDELKRRLEELKEEALRKAHDYGSEFYLKLEY
[18]
  Specificity: 1.8 fold
[9]
  Kd: 210 µM
[10]
  Kd: 0.0046 µM
[19]
  apparent Kd (pooled screen): 0.0026 µM
[5]
  Kd: 0.02 µM
[6]
  Kd: 0.009 µM
[7]
  Kd: 0.59 µM

B12: Index 15 (designed binder)
chain: GNDRDQIEEYHRERMDEELDRAKKRLEELKKLWEKLDGDDLMKFFWTFKWIAESLKIIGDLFNRLLRTWEFAEALKKGIGFDEKKAEEAKERAYERAAEAAWKAAKLSREMREFLLKG
[1]
  Log2 enrichment ratio: -0.71 log2
[2]
  Log2 enrichment ratio: -2.77 log2
[3]
  binding result: no binding

B13: Index 47 (designed binder)
chain: GWSADWIKDQAKELMLRAAEEMKKRADEEEKKFKYKQFTTEFLTKATMRWIALALMAIGDVFNVLMWALEWAKRMAKLNQYRKEELEKAKEEAKKLAEKAARRITEIGREAEQKALKG
[1]
  Log2 enrichment ratio: -2.79 log2
[2]
  Log2 enrichment ratio: -3.13 log2
[3]
  binding result: no binding

B14: M-CDP02 (designed binder)
chain: ADPKKVLDKAKDQAENRVRELKQELEELYKEARKLDLTQEERRKLEESYIAAMLRAIGDIFNAIMQAKNEADKLKKAGLVNSQQLDELRRRLEELRKEASLKAEDYGREFQEKLEY
[20]
  binding result: binds
[21]
  binding result: binds
[22]
  binding result: binds
[23]
  binding result: binds
